Measured values from the supplement of paper PMC10567573.

B1: ACSBG2 (parent)
chain: TPMTIPEFFRESVNRFGTYPALAS

Variants of: B1
Assay: protein stability index of a GFP-peptide fusion (GPS, HEK-293T) (PSI 1-6); higher = more stable
Settings: c terminus: a fixed tail appended
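Note: lentivirally expressed fusions sorted by FACS into six bins by GFP to DsRed ratio, PSI derived from sequencing read proportions per bin multiplied by bin number.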

Protein stability index, by site and new letter:
P2: S 2.41 | R 2.12 | F 1.83 | L 1.93 | E 2.89 | V 1.98 | Q 2.4 | T 2.35 | G 2.12 | N 2.2 | D 2.65 | K 2.01 | Y 2.88 | M 2.55 | W 1.4 | H 2.29 | I 1.44
M3: Y 2.49 | R 2.61 | C 2.34 | A 2.34 | S 2.8 | G 2.54 | E 2.44 | K 2.46 | P 2.02 | I 2.5 | D 2.52 | W 1.69 | V 2.11 | L 2.09 | N 2.62 | H 2.37 | F 2.14 | Q 3.21 | T 2.55
F8: N 3.19 | T 2.8 | Q 2.65 | C 2.7 | W 2.09 | V 2.14 | K 3.02 | R 2.39 | H 2.45 | M 2.35 | P 2.72 | D 3.19 | Y 2.4 | A 2.99 | S 2.9 | L 2.66 | E 2.35 | I 2.42 | G 3.02
I5: H 2.39 | R 2.97 | C 2.58 | A 2.44 | Y 2.05 | E 2.84 | L 1.97 | M 2.37 | G 2.84 | N 2.39 | V 2.03 | S 2.51 | P 2.5 | D 2.7 | Q 3.5 | T 2.67 | W 2.18 | K 2.19 | F 2.23
E7: Y 1.52 | S 2 | P 2.24 | C 2.19 | I 2.65 | W 1.74 | R 2.19 | M 2.63 | H 2.94 | G 2.14 | A 2.26 | Q 2.02 | N 2.63 | T 2.19 | K 2.25 | L 2.15 | V 1.9 | F 2.93 | D 2.13
P6: N 2.05 | K 2.15 | W 2.67 | E 2.15 | C 1.89 | R 2.08 | S 1.94 | Y 1.99 | T 1.88 | I 3 | D 1.76 | V 1.41 | M 3.03 | L 3.27 | A 1.8 | Q 1.93 | G 2.08 | H 2.38 | F 4.36
T4: G 2.34 | K 2.31 | D 2.23 | H 2.38 | V 3.26 | E 2.52 | F 1.65 | A 2.62 | Q 2.13 | W 2.19 | S 1.99 | P 2.73 | C 2.36 | Y 2.62 | N 2.4 | M 2.17 | L 1.86 | R 2.32 | I 1.88
F9: M 2.45 | C 2.17 | Y 2.71 | N 3.16 | V 2.36 | R 2.88 | G 3.05 | K 2.67 | E 3.41 | A 2.42 | T 3.4 | H 2.98 | I 2.27 | L 1.76 | P 2.79 | W 1.92 | Q 2.37 | D 3.36 | S 2.71
R10: E 2.43 | V 1.54 | K 2.55 | I 1.51 | Q 2.62 | F 2.04 | S 2.45 | P 3.03 | M 1.63 | A 2.61 | D 2.75 | C 1.5 | T 2.37 | H 2.15 | N 3.3 | L 1.45 | G 2.37
